Each block holds one binder with its values, some of them ahead of it.
Assays:
[1] = molecular target: Transferrin Receptor 1 (TfR1/CD71) on human colorectal cancer cells (HT29: high expression); LOVO: low … (human (endogenous in HT29 and LOVO), UniProt P02786 1-760); assay: cell-based or functional assay
[2] = molecular target: T1, Recombinant human TfR1-Fc protein (TFR-H5264, Acro Biosystems) (human, UniProt P02786 101-760); assay: SPR; Biacore 8K; recombinant human TfR1-Fc immobilized on the sensor chip; TR01 at 62.5–1,000 nM; as printed: 'acidic conditions (pH 2.0) using a running buffer containing TfR1 at 30 μg/mL'; global fit of association and dissociation curves; settings: both partners purified
T1 construct: Transferrin receptor 1 (TfR1/CD71), human; As recalled, the supplier's TfR1 constructs hold the extracellular part (about Cys89-Phe760); source: bought: Acro Biosystems
T1 sequence (P02786 101-760): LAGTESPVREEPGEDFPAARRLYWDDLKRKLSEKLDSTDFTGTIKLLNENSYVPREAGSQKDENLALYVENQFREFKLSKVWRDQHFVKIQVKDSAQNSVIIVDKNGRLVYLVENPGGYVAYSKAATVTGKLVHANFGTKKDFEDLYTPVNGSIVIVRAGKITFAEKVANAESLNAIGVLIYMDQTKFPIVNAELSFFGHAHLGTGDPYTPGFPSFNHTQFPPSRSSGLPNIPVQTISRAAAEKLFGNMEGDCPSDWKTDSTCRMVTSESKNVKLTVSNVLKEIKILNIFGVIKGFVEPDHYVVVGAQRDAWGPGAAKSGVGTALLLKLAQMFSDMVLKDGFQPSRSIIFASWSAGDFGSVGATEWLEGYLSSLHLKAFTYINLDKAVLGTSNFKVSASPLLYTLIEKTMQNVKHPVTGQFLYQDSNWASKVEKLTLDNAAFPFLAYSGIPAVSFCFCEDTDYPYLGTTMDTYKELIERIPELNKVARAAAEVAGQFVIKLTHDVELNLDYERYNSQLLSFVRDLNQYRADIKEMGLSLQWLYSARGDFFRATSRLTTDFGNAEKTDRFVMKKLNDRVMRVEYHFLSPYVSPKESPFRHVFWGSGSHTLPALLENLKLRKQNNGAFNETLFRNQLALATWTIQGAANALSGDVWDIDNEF

Transferrin Receptor 1 (TfR1/CD71) on human colorectal cancer cells (HT29: high expression); LOVO: low …, sequence (P02786 whole entry): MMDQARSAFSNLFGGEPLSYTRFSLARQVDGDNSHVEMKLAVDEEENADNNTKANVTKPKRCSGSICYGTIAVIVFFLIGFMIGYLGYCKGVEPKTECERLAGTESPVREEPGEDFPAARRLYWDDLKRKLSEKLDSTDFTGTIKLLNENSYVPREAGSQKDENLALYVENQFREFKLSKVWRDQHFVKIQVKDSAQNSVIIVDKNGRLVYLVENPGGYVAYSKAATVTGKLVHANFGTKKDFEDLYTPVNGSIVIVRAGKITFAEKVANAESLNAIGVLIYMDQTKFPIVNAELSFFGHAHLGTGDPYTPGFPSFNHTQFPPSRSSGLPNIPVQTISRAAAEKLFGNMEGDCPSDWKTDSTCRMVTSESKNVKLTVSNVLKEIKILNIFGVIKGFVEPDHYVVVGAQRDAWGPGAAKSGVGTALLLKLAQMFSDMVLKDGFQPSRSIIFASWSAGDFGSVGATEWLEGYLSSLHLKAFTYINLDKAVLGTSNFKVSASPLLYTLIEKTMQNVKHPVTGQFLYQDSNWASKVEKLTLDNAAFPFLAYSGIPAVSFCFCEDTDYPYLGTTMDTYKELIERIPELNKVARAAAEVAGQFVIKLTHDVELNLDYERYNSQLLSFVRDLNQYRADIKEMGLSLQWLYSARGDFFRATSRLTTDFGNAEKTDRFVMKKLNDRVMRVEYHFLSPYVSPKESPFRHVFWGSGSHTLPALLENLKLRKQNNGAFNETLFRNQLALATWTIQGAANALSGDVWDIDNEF

biodistribution: tumor-to-muscle (T/M) ratio in HT29 tumor-bearing mice, 30 to 120 min postinjection (3.73, 5.10, 9.18) [1]: 9.18
biodistribution: tumor-to-muscle (T/M) ratio in LOVO-bearing mice (low TfR1), 30 to 120 min postinjection (2.30, 3.16, 5.01) [1]: 5.01
tumor-to-muscle (T/M) ratio in HT29 xenografts by micro-PET/CT with coinjection of excess unlabeled NOTA-TR01, 30 to 120 min (0.47, 0.45, 0.86) [1]: 0.86
tumor-to-muscle (T/M) ratio in HT29 xenografts by micro-PET/CT, 30 to 120 min postinjection (2.79, 3.98, 7.88) [1]: 7.88
tumor-to-muscle (T/M) ratio in LOVO xenografts (low TfR1) by micro-PET/CT, 30 to 120 min postinjection (1.65, 2.30, 2.94) [1]: 2.94
B1: ^68Ga-NOTA-TR01 (peptide)
peptide: AVFVWNYYIIRRYYCK
modifications: cyclo(Ac-Ala1 ... Cys15) as printed; N-terminal Ac; NMe-Tyr at position 14; PEG12 between Cys15 and the C-terminal Lys; NOTA on the Lys, holding ^68Ga

Kd [2]: 22.3 nM
koff [2]: 0.00173 s⁻¹
kon [2]: 77300 M⁻¹ s⁻¹
B2: NOTA-TR01 [cyclo(Ac-Ala-Val-Phe-Val-Trp-Asn-Tyr-Tyr-Ile-Ile-Arg-Arg-Tyr-NMe-Tyr-Cys)-PEG12-Lys-NOTA] (peptide)
peptide: AVFVWNYYIIRRYYCK
modifications: cyclo(Ac-Ala1 ... Cys15) as printed; N-terminal Ac; NMe-Tyr at position 14; PEG12 between Cys15 and the C-terminal Lys; NOTA on the Lys
notes: the 15-residue macrocycle, printed in three-letter code; position 14 is N-methyl-Tyr; C-terminal Lys that carries NOTA; joined to Cys15 through a PEG12 spacer (no amino acids); a thioether from an N-terminal chloroacetyl group is only surmised; also called unlabeled TR01; unlabeled NOTA-TR01; source: synthetic peptide, custom synthesized by A+ Peptide (Shanghai, China), >95% purity

From article PMC12750270, “Design and Preclinical Evaluation of a ^68Ga-Labeled Macrocyclic Peptide PET Probe Targeting Transferrin Receptor 1 in Colorectal Cancer” (ACS Omega, 2025)
